Laboratory results published in article PMC7968997.
Where a chain is given by its changes, count along the chain named.

Key:
Test in all cases: fluorescence polarization
RBM45 RRM1-2 WT = target: T1, RBM45 RRM1-2 WT (Homo sapiens, UniProt Q8IUH3 23-202)
T1 sequence: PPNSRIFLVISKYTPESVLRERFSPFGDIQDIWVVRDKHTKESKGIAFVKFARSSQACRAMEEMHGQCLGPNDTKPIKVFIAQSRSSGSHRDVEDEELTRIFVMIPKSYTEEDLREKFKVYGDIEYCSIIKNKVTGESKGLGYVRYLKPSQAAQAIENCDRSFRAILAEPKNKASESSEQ

RRM1 analog K100A = target: T2, RRM1 analog K100A (Homo sapiens, UniProt Q8IUH3 23-202, K100A;F124A;Y165A)
T2 sequence: T1 sequence with K78A, F102A, Y143A

RRM1 analog F70A = target: T3, RRM1 analog F70A (Homo sapiens, UniProt Q8IUH3 23-202, F70A;F124A;Y165A)
T3 sequence: T1 sequence with F48A, F102A, Y143A

RRM1 analog W55A = target: T4, RRM1 analog W55A (Homo sapiens, UniProt Q8IUH3 23-202, W55A;F124A;Y165A)
T4 sequence: T1 sequence with W33A, F102A, Y143A

RRM2 analog R122A = target: T5, RRM2 analog R122A (Homo sapiens, UniProt Q8IUH3 23-202, F29A;F70A;R122A)
T5 sequence: T1 sequence with F7A, F48A, R100A

RRM2 analog Y165A = target: T6, RRM2 analog Y165A (Homo sapiens, UniProt Q8IUH3 23-202, F29A;F70A;Y165A)
T6 sequence: T1 sequence with F7A, F48A, Y143A

B1: GGACGG RNA (ssRNA)
RNA: GGACGG
RBM45 RRM1-2 WT
  Kd: 0.457 ± 0.053 µM
RRM1 analog K100A
  Kd: 4.59 µM
RRM1 analog F70A
  Kd: 16.8 µM
RRM1 analog W55A
  Kd: 3.54 µM
RRM2 analog R122A
  Kd: 18.7 µM
RRM2 analog Y165A
  Kd: 20.4 µM
